In patent publication US20160151452A1:

Key:
EphB2-Fc [1] = assay: SPR, 100 nM analyte over immobilised EphB2-Fc
EphB2-Fc [2] = assay: SPR titration on immobilised EphB2-Fc, Langmuir 1:1 fit
EphB2-Fc [3] = assay: SPR titration (0.05-100 nM) on immobilised EphB2-Fc, Langmuir 1:1 fit
[4] = biological target: EphB2 transiently expressed in DU145 cells; assay: cell-based or functional assay
EphB2-Fc [5] = assay: SPR competition on immobilised EphB2-Fc; competitor ephrinB2-Fc 246 nM
EphB2-Fc [6] = assay: SPR competition on immobilised EphB2-Fc; competitor ephrinB2-Fc 246 nM preincubated with 0-1020 nM GST-Azu 88-113
EphA6-Fc = assay: SPR, azurin immobilised on CM5 chip, 100 nM Eph-Fc injected
EphB2-Fc [7] = assay: as above
EphB2-Fc [8] = assay: SPR competition on immobilised EphB2-Fc; competitor ephrinB2-Fc 246 nM preincubated with 0-1020 nM azurin

Chain of GST-Azu 88-113 (P08515 1-218, tags or fused parts left off): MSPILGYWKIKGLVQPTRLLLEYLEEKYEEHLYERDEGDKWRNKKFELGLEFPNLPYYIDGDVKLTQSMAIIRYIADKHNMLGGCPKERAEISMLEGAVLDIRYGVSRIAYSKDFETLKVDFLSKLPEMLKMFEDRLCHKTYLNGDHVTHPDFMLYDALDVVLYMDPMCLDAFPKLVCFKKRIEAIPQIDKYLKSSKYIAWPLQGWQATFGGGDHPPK
Chain of azurin from Pseudomonas aeruginosa (P00282 21-148 limits assumed): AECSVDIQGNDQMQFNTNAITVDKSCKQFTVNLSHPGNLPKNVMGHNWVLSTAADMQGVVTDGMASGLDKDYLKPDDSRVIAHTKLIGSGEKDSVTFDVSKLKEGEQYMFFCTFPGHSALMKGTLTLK
Chain of ephrinB2-Fc (Fc fusion) (P52800 29-232): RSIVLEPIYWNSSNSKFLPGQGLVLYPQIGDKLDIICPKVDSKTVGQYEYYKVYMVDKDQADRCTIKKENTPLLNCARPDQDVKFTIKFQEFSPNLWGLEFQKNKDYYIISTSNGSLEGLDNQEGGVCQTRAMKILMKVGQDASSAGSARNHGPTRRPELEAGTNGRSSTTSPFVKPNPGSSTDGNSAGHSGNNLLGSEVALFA
Chain of EphB2-Fc (P54763 19-543): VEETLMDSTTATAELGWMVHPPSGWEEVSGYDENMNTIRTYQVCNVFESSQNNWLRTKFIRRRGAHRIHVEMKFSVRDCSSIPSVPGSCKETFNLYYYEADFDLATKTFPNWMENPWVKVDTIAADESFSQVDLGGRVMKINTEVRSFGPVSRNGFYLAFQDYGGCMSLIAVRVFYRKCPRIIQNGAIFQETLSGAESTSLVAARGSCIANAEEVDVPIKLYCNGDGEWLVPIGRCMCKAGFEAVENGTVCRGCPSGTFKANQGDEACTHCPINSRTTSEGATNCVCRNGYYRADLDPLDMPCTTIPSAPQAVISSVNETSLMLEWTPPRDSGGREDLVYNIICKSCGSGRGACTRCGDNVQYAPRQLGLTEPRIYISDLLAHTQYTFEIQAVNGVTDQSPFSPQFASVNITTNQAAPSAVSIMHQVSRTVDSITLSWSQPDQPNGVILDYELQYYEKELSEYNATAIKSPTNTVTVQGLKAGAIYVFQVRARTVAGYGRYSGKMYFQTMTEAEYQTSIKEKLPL
Chain of glutathione S-transferase (GST) (P08515 whole entry): as the sequence (P08515 1-218, tags or fused parts left off) above
Chain of GST-Azu 36-89 (P08515 1-218, tags or fused parts left off): as above
Chain of EphA6-Fc (Q9UF33 whole entry): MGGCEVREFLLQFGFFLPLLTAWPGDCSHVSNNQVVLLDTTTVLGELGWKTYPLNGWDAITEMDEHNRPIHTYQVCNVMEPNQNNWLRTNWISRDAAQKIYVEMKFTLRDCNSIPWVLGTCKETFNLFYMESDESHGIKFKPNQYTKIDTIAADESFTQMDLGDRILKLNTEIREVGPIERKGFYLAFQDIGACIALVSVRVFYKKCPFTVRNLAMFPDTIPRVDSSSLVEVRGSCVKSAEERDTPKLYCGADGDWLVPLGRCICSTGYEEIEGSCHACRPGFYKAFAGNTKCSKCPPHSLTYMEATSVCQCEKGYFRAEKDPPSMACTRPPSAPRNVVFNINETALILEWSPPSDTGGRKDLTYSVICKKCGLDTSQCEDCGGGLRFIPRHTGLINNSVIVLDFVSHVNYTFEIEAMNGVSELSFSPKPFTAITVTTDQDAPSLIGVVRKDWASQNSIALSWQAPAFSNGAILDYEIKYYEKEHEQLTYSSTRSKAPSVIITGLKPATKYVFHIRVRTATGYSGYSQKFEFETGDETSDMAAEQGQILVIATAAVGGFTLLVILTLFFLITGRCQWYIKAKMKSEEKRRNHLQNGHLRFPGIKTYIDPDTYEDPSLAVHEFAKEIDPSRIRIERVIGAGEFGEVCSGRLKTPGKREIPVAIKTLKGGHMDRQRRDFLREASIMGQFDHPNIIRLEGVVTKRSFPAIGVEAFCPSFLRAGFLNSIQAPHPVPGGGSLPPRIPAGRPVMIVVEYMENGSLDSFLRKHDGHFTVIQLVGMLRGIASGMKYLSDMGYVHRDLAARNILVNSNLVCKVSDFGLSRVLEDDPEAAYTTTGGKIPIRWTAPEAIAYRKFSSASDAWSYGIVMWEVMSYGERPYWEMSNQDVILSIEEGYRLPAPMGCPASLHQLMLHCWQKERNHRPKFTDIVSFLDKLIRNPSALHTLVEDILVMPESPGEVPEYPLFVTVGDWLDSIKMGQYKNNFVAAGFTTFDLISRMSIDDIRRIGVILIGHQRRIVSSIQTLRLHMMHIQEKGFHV

| Substance | Req in RU (EphB2-Fc [1]) | Kd (EphB2-Fc [2]) | Kd (EphB2-Fc [3]) | level at which the inhibition levels off (EphB2-Fc [5]) | further results |
| --- | --- | --- | --- | --- | --- |
| glutathione S-transferase (GST) (from UniProt P08515 1-218) (enzyme) | 14 RU | > 160 nM |  |  |  |
| GST-Azu 36-89 (from UniProt P08515 1-218) | 57 RU |  |  |  |  |
| ephrinB2-Fc (Fc fusion) | 159 RU | 30 nM | 30 nM |  |  |
| GST-Azu 88-113 (from UniProt P08515 1-218) |  |  |  | 40 to 50% | decrease in phosphotyrosine level on cotreatment with ephrinB2 (lane 11 against lane 8) [4]: 21%; decrease in phosphotyrosine level on cotreatment with ephrinB2 (lane 12 against lane 9) [4]: 42%; decrease in phosphotyrosine level on cotreatment with ephrinB2 (lane 13 against lane 10) [4]: 45%; reduction of total protein binding to the surface (EphB2-Fc [6]): < 60% |
| azurin from Pseudomonas aeruginosa (from UniProt P00282 21-148) | 427 RU |  | 6 nM | 40 to 50% | lower level of tyrosine phosphorylation with azurin plus ephrinB2 than with ephrinB2 alone [4]: 30 to 40%; Req (saturating resonance) (EphA6-Fc): 1200 RU; Req (saturating resonance) (EphB2-Fc [7]): 1250 RU; reduction of total protein binding to the surface (EphB2-Fc [8]): < 60% |
